The target of assay [1] is A4V mutant copper-zinc superoxide dismutase (A4VSOD1) (human) (UniProt P00441). Put plainly: AUC.
For assay [2] the target is unchanged. Put plainly: atomic force microscopy.

The results in this text go back to PMC3384721.

Where “and” joins values, the source holds several entries; their conditions need not be identical. Equal values may be shown once.

By stoichiometry N is commonly meant the number of molecules, sites or subunits per partner or assembly. Take “A4V mutant copper-zinc superoxide dismutase (A4VSOD1) (from UniProt P00441 6-154) (enzyme)”: in assay [1], the percent of total protein as dimer came to 31.7%; the percent of total protein as tetramer is 37.6%; the stoichiometry N was 2 and 4. Further, the stoichiometry N in assay [2] came out at 4.
